Assay results taken from patent US20230212635.

Tests used:
C3b = C3b (UniProt P01024)

Sequence of C3b, P01024 (P01024 whole entry, looked up): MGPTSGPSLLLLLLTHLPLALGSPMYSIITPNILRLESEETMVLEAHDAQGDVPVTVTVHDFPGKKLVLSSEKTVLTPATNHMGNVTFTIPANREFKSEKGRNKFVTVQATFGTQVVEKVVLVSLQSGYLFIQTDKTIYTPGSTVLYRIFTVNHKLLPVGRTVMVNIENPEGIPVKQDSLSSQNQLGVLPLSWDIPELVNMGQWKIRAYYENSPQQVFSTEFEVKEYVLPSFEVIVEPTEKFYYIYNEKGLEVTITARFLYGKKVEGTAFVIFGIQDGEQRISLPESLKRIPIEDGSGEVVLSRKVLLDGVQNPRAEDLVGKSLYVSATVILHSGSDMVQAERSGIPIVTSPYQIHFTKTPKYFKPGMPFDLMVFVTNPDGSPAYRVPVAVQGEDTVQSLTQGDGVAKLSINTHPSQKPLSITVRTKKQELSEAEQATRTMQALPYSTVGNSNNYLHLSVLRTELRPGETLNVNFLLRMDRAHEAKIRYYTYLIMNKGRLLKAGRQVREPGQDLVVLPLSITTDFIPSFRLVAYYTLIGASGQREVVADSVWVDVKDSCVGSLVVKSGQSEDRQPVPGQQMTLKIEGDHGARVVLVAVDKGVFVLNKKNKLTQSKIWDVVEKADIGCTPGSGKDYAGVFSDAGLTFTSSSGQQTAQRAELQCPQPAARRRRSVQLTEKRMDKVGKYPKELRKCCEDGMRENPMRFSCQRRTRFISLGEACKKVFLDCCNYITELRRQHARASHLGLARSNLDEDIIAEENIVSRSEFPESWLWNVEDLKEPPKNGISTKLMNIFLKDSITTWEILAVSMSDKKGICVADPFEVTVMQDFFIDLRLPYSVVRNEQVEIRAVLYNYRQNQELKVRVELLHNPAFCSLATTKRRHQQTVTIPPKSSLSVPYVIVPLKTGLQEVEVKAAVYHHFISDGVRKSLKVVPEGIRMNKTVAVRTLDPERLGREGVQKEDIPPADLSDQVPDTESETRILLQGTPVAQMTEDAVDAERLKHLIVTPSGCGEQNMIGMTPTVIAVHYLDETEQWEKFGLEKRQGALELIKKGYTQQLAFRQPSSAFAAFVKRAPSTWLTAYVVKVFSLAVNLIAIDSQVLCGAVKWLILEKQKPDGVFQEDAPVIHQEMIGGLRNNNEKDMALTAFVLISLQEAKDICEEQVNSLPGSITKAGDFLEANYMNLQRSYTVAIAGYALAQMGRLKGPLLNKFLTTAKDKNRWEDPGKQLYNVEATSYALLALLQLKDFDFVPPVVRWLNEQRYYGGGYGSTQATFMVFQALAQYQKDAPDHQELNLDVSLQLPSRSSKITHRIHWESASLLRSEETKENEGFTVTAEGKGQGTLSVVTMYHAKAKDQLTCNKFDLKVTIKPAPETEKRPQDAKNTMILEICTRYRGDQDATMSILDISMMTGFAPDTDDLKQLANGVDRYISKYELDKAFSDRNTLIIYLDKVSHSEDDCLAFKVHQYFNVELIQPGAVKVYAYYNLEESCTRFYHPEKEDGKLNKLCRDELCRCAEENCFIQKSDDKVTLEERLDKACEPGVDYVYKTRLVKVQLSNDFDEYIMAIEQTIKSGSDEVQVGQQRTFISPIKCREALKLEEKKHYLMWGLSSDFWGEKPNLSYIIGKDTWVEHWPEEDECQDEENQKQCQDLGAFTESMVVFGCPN

recombinant precursor Complement Factor I (single chain with intact RRKR linker)
fluid phase cofactor activity (C3b cleavage with Factor H, SDS-PAGE, Coomassie) (C3b): by 45 minutes 10ng of precursor CFI showed no demonstrable activity

recombinant mature Complement Factor I from the pDEF-CFI vector in CHO-K1 cells (first Mono S peak)
fluid phase cofactor activity (C3b cleavage with Factor H, SDS-PAGE, Coomassie) (C3b): At 30 minutes the lowest concentration of fully processed factor I (6.25ng) (right) had cleaved C3b as evidenced by decrease in C3α -110 band and increase in C3α-68,-46, and -43 bands

recombinant mature Complement Factor I produced from the Furin-IRES-CFI vector (VB171219-1127wqz) in HEK293T cells
fluid phase cofactor activity (C3b cleavage with Factor H, SDS-PAGE, Coomassie) (C3b): Enzymatic activity of IRES CFI and serum CFI was demonstrated to be equivilant.

B1: serum purified Complement Factor I (Complement Technology, A138) (protein)
chain: KVTYTSQEDLVEKKCLAKKYTHLSCDKVFCQPWQRCIEGTCVCKLPYQCPKNGTAVCATNRRSFPTYCQQKSLECLHPGTKFLNNGTCTAEGKFSVSLKHGNTDSEGIVEVKLVDQDKTMFICKSSWSMREANVACLDLGFQQGADTQRRFKLSDLSINSTECLHVHCRGLETSLAECTFTKRRTMGYQDFADVVCYTQKADSPMDDFFQCVNGKYISQMKACDGINDCGDQSDELCCKACQGKGFHCKSGVCIPSQYQCNGEVDCITGEDEVGCAGFASVTQEETEILTADMDAERRRIKSLLPKLSCGVKNRMHIRRKRIVGGKRAQLGDLPWQVAIKDASGITCGGIYIGGCWILTAAHCLRASKTHRYQIWTTVVDWIHPDLKRIVIEYVDRIIFHENYNAGTYQNDIALIEMKKDGNKKDCELPRSIPACVPWSPYLFQPNDTCIVSGWGREKDNERVFSLQWGEVKLISNCSKFYGNRFYEKEMECAGTYDGSIDACKGDSGGPLVCMDANNVTYVWGVVSWGENCGKPEFPGVYTKVANYFDWISYHVGRPFISQYNV
fluid phase cofactor activity (C3b cleavage with Factor H, SDS-PAGE, Coomassie) (C3b, P01024): Enzymatic activity of IRES CFI and serum CFI was demonstrated to be equivilant.
